The target in the experiment is GFP-tagged holo-CPC (Chromosomal Passenger Complex: INCENP, GFP-Aurora B, Borealin, Survivin) (human, UniProt Q9NQS7;Q96GD4;Q53HL2;O15392). As to the kind of experiment: pull-down.
Sequence of GFP-tagged holo-CPC (Chromosomal Passenger Complex: INCENP, GFP-Aurora B, Borealin, Survivin) (Q9NQS7 whole entry, chain 1 of 4): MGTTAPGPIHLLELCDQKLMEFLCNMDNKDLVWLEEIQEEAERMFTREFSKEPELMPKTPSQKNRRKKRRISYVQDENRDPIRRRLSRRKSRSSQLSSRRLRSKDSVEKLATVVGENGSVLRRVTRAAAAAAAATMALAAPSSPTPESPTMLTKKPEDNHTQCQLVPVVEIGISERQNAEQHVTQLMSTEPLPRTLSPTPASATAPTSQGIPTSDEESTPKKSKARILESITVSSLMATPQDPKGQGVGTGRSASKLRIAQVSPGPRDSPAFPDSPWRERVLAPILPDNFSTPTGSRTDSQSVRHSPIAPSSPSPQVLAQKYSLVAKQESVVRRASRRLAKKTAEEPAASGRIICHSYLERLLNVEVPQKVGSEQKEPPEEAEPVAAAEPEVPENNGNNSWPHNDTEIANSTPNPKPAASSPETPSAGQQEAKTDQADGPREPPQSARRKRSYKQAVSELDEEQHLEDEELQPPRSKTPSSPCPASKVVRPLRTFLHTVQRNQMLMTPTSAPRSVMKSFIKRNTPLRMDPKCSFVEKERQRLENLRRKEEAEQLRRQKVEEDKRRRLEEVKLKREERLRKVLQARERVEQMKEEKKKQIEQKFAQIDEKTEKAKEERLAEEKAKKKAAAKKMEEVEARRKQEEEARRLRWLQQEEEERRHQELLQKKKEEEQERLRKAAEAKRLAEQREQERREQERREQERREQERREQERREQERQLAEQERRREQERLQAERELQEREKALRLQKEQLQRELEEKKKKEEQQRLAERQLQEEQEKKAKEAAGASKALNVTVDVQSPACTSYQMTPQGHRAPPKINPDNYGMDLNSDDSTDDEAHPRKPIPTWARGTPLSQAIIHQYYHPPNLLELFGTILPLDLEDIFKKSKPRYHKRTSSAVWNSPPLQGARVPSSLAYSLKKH
Sequence of GFP-tagged holo-CPC (Chromosomal Passenger Complex: INCENP, GFP-Aurora B, Borealin, Survivin) (Q96GD4 whole entry, chain 2 of 4): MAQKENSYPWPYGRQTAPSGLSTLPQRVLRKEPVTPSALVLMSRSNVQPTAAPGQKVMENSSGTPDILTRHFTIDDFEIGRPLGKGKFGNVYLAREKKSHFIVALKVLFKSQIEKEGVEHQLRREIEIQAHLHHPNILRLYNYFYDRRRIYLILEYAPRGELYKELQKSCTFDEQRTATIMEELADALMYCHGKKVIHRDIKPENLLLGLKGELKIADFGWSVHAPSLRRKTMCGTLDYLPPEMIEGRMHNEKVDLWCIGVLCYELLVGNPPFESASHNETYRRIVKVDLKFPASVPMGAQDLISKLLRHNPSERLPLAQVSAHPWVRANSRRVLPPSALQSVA
Sequence of GFP-tagged holo-CPC (Chromosomal Passenger Complex: INCENP, GFP-Aurora B, Borealin, Survivin) (Q53HL2 whole entry, chain 3 of 4): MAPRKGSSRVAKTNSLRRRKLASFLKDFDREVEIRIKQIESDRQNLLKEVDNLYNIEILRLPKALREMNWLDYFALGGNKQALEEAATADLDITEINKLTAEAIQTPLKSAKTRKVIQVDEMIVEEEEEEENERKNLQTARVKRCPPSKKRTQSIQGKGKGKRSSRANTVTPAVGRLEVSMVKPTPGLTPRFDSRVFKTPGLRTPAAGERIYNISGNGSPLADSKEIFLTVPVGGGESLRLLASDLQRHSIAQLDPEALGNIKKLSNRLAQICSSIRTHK
Sequence of GFP-tagged holo-CPC (Chromosomal Passenger Complex: INCENP, GFP-Aurora B, Borealin, Survivin) (O15392 whole entry, chain 4 of 4): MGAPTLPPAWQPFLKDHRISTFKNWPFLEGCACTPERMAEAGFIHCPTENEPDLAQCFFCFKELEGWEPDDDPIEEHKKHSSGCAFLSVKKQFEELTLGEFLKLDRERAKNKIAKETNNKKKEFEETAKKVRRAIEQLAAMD

B1: KIF20A (kinesin-6 motor), unlabeled (natural protein)
chain: MSQGILSPPAGLLSDDDVVVSPMFESTAADLGSVVRKNLLSDCSVVSTSLEDKQQVPSEDSMEKVKVYLRVRPLLPSELERQEDQGCVRIENVETLVLQAPKDSFALKSNERGIGQATHRFTFSQIFGPEVGQASFFNLTVKEMVKDVLKGQNWLIYTYGVTNSGKTHTIQGTIKDGGILPRSLALIFNSLQGQLHPTPDLKPLLSNEVIWLDSKQIRQEEMKKLSLLNGGLQEEELSTSLKRSVYIESRIGTSTSFDSGIAGLSSISQCTSSSQLDETSHRWAQPDTAPLPVPANIRFSIWISFFEIYNELLYDLLEPPSQQRKRQTLRLCEDQNGNPYVKDLNWIHVQDAEEAWKLLKVGRKNQSFASTHLNQNSSRSHSIFSIRILHLQGEGDIVPKISELSLCDLAGSERCKDQKSGERLKEAGNINTSLHTLGRCIAALRQNQQNRSKQNLVPFRDSKLTRVFQGFFTGRGRSCMIVNVNPCASTYDETLHVAKFSAIASQLVHAPPMQLGFPSLHSFIKEHSLQVSPSLEKGAKADTGLDDDIENEADISMYGKEELLQVVEAMKTLLLKERQEKLQLEMHLRDEICNEMVEQMQQREQWCSEHLDTQKELLEEMYEEKLNILKESLTSFYQEEIQERDEKIEELEALLQEARQQSVAHQQSGSELALRRSQRLAASASTQQLQEVKAKLQQCKAELNSTTEELHKYQKMLEPPPSAKPFTIDVDKKLEEGQKNIRLLRTELQKLGESLQSAERACCHSTGAGKLRQALTTCDDILIKQDQTLAELQNNMVLVKLDLRKKAACIAEQYHTVLKLQGQVSAKKRLGTNQENQQPNQQPPGKKPFLRNLLPRTPTCQSSTDCSPYARILRSRRSPLLKSGPFGKKY
For the molecule B1, the binding result was “binds”.
